# Changes are numbered by the printed parent chain.
# T1: FcgRIIb (human, UniProt P31994)
# T1 chain: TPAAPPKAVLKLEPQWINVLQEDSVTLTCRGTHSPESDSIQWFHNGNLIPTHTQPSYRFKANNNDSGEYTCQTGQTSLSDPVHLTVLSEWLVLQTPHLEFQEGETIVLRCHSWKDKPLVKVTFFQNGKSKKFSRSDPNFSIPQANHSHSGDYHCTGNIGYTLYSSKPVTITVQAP
# T2: FcgRIIa R (human, UniProt P12318)
# T2 chain: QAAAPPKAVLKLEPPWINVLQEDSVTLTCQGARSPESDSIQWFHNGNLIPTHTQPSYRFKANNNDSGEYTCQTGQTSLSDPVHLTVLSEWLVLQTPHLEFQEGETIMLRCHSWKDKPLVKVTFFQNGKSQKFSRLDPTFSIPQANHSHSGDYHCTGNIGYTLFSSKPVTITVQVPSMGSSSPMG
# T3: FcgRIa (human, UniProt P12314)
# T3 chain: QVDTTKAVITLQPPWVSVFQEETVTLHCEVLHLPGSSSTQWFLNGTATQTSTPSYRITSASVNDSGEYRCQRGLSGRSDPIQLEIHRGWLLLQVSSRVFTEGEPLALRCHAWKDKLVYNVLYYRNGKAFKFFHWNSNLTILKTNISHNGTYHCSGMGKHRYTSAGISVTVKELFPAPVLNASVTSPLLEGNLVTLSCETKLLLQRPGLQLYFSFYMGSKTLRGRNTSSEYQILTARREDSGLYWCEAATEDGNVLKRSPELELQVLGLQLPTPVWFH
# T4: FcgRIIa H (human, UniProt P12318)
# T4 chain: T2 chain with R134H
# B1: H240-Kn227/H240-Hl210/L73-k0 (antibody)
# chain 1: QDQLVQSGAEVKKPGASVKVSCKASGFNIKDTYIQWVRQAPGQGLEWMGRIDPLRKQTKYREKFEGRVTITADTSTNTAYMELSSLRSEDTAVYYCVRSGREFDYWGQGTLVTVSSASTKGPSVFPLAPSSKSTSGGTAALGCLVKDYFPEPVTVSWNSGALTSGVHTFPAVLQSSGLYSLSSVVTVPSSSLGTQTYICNVNHKPSNTKVDKKVEPKSCDKTHTCPPCPAPEEQWGPIVFLFPPKPKDTLMISRTPEVTCVVVDVSDEEPEVKFNWYVDGVEVHNAKTKPREEQYNATYRVVSVLTVLHQDWLNGKEYKCKVSNKALPAPIEKTISKAKGQPREPQVCTLPPSRDELTKNQVSLWCLVKGFYPSDIAVEWESNGQPENNYKTTPPVLDSDGSFFLYSKLTVDKSRWQQGNVFSCSVMHEALHNHYTQKSLSLSP
# chain 2: QDQLVQSGAEVKKPGASVKVSCKASGFNIKDTYIQWVRQAPGQGLEWMGRIDPLRKQTKYREKFEGRVTITADTSTNTAYMELSSLRSEDTAVYYCVRSGREFDYWGQGTLVTVSSASTKGPSVFPLAPSSKSTSGGTAALGCLVKDYFPEPVTVSWNSGALTSGVHTFPAVLQSSGLYSLSSVVTVPSSSLGTQTYICNVNHKPSNTKVDKKVEPKSCDKTHTCPPCPAPELLGGPSVFLFPPKPKDTLMISRTPEVTCVVVDVSHEEPEVKFNWYVDGVEVHNAKTKPREEQYNSTYRVVSVLTVLHQDWLNGKEYKCKVSNDALPAPIEETISKAKGQPREPQVYTLPPSRCELTKNQVSLSCAVKGFYPSDIAVEWESNGQPENNYKTTPPVLDSDGSFFLVSKLTVDKSRWQQGNVFSCSVMHEALHNHYTQKSLSLSP
# chain 3: DIQMTQSPSSLSASVGDRVTITCRASQDIHKYIAWYQQKPGQAPRLLIQYTSTLQPGVPSRFSGSGSGTDYTFTISSLQPEDIATYYCLQYEQLRTFGGGTKVEIKRTVAAPSVFIFPPSDEQLKSGTASVVCLLNNFYPREAKVQWKVDNALQSGNSQESVTEQDSKDSTYSLSSTLTLSKADYEKHKVYACEVTHQGLSSPVTKSFNRGEC
# B2: H240-Kn166/H240-Hl170/L73-k0 (antibody)
# chain 1: B1 chain 1 with E233Y, Q234Y, I238M, E269D, A326D, L327A
# chain 2: B1 chain 2 with L327A, A329K
# chain 3: B1 chain 3
# B3: H240-Kn120/H240-Hl174/L73-k0 (antibody)
# chain 1: B1 chain 1 with E233Y, Q234Y, I238M, E269D, A326D
# chain 2: B1 chain 2 with A329K, I331E
# chain 3: B1 chain 3
# B4: H240-Kn149/H240-Hl068/L73-k0 (antibody)
# chain 1: B1 chain 1 with E233Y, Q234Y, I238M, E269D, A326D, L327W, K333L
# chain 2: B1 chain 2 with A329K
# chain 3: B1 chain 3
# B5: H240-Kn120/H240-Hl170/L73-k0 (antibody)
# chain 1: B1 chain 1 with E233Y, Q234Y, I238M, E269D, A326D
# chain 2: B1 chain 2 with L327A, A329K
# chain 3: B1 chain 3
# B6: H240-Kn172/H240-Hl177/L73-k0 (antibody)
# chain 1: B1 chain 1 with E233Y, Q234Y, I238M, E269D, A326D, I331M
# chain 2: B1 chain 2 with A329K, I331Q
# chain 3: B1 chain 3
# B7: H240-Kn120/H240-Hl150/L73-k0 (antibody)
# chain 1: B1 chain 1 with E233Y, Q234Y, I238M, E269D, A326D
# chain 2: B1 chain 2 with A329K, I331T
# chain 3: B1 chain 3
# B8: H240-Kn138/H240-Hl068/L73-k0 (antibody)
# chain 1: B1 chain 1 with E233Y, Q234Y, I238M, E269D, A326D, L327W
# chain 2: B1 chain 2 with A329K
# chain 3: B1 chain 3
# B9: H240-Kn138/H240-Hl147/L73-k0 (antibody)
# chain 1: B1 chain 1 with E233Y, Q234Y, I238M, E269D, A326D, L327W
# chain 2: B1 chain 2 with L327W, A329K
# chain 3: B1 chain 3
# B10: H240-Kn120/H240-Hl182/L73-k0 (antibody)
# chain 1: B1 chain 1 with E233Y, Q234Y, I238M, E269D, A326D
# chain 2: B1 chain 2 with A230H, A329K
# chain 3: B1 chain 3
# B11: H240-Kn178/H240-Hl068/L73-k0 (antibody)
# chain 1: B1 chain 1 with E233Y, Q234Y, I238M, E269D, A326D, K333Y
# chain 2: B1 chain 2 with A329K
# chain 3: B1 chain 3
# B12: H240-Kn173/H240-Hl068/L73-k0 (antibody)
# chain 1: B1 chain 1 with E233Y, Q234Y, I238M, E269D, A326D, I331Q
# chain 2: B1 chain 2 with A329K
# chain 3: B1 chain 3
# B13: GpH7-TA7/GpH7-B3/GpL16-k0 (antibody)
# chain 1: QVQLVQSGAEVKKPGASVTVSCKASGYTFTDYEMHWIRQPPGEGLEWIGAIDPKTGDTAYSESFQDRVTLTADKSTSTAYMELSSLTSEDTAVYYCTRFYSYTYWGQGTLVTVSSASTKGPSVFPLAPSSKSTSGGTAALGCLVKDYFPEPVTVSWNSGALTSGVHTFPAVLQSSGLYSLSSVVTVPSSSLGTQTYICNVNHKPSNTKVDKKVEPKSCDKTHTCPPCPAPEYLWGPSVFLFPPKPKDTLMISRTPEVTCVVVDVSHEDPEVKFNWYVDGVEVHNAKTKPREEQYNATYRVVSVLTVLHQDWLNGKEYKCKVSNKALPAPIEKTISKAKGQPREPQVYTLPPSRKELTKNQVSLTCLVKGFYPSDIAVEWESNGQPENNYKTTPPVLDSDGSFFLYSKLTVDKSRWQQGNVFSCSVMHEALHNRYTQKSLSLSP
# chain 2: not shown
# chain 3: DIVMTQSPLSLPVTPGEPASISCQASESLVHSNRNTYLHWYLQKPGQSPQLLIYKVSNRFSGVPDRFSGSGSGTDFTLKISRVEAEDVGVYYCSQNTHVPPTFGQGTKVEIERTVAAPSVFIFPPSDEQLKSGTASVVCLLNNFYPREAKVQWKVDNALQSGNSQESVTEQDSKDSTYSLSSTLTLSKADYEKHKVYACEVTHQGLSSPVTKSFNRGEC
# B14: GpH7-A5/GpH7-B78/GpL16-k0 (antibody)
# chain 1: not shown
# chain 2: B13 chain 1 with Y232L, W234G, S237D, A296S, A328L, I330E, K354D, R433H, K437E
# chain 3: B13 chain 3
# B15: GpH7-A57/GpH7-B78/GpL16-k0 (antibody)
# chain 1: B13 chain 1 with Y232L, W234G, S237D, A296S, A328L, I330E
# chain 2: B13 chain 1 with Y232L, W234G, S237D, A296S, A328L, I330E, K354D, R433H, K437E
# chain 3: B13 chain 3
# Target: T1, FcgRIIb
# Test: SPR
row,Binder,Kd [nM]
1,B1,2500

# Target: T5, FcgRIIIa V (human, UniProt P08637)
# T5 sequence (P08637 17-208 F176V): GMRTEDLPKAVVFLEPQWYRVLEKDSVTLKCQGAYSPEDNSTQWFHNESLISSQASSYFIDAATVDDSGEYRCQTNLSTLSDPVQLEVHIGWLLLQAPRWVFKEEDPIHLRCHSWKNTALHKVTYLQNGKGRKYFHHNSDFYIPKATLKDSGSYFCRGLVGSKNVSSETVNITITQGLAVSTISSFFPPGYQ
# Test: SPR
row,Binder,Kd [nM]
1,B2,1
2,B3,0.036
3,B4,0.32
4,B5,0.93
5,B6,0.22
6,B7,0.57
7,B8,0.43
8,B9,16
9,B10,0.29
10,B11,0.19
11,B12,0.4

# Target: T1, FcgRIIb
# Test: SPR
# Remark: another data set of the same source
row,Binder,Kd [nM]
1,B13,4500
2,B14,430
3,B15,610

# Target: T2, FcgRIIa R
# Test: SPR
row,Binder,Kd [nM]
1,B1,260

# Target: T6, FcgRIIIa F (human, UniProt P08637)
# T6 sequence (P08637 17-208): as the sequence (P08637 17-208 F176V) above, with V160F counted along it
# Test: SPR
row,Binder,Kd [nM]
1,B13,320
2,B14,54
3,B15,6.2

# Target: T3, FcgRIa
# Test: SPR
row,Binder,Kd [nM]
1,B1,0.17

# Target: T5, FcgRIIIa V
# Test: SPR
# Remark: another data set of the same source
row,Binder,Kd [nM]
1,B1,0.91

# Target: T6, FcgRIIIa F
# Test: SPR
# Remark: another data set of the same source
row,Binder,Kd [nM]
1,B1,4.4

# Target: T1, FcgRIIb
# Test: SPR
# Remark: another data set of the same source
row,Binder,Kd [nM]
1,B2,200
2,B3,130
3,B4,150
4,B5,67
5,B6,160
6,B7,98
7,B8,130
8,B9,110
9,B10,240
10,B11,110
11,B12,280

# Target: T4, FcgRIIa H
# Test: SPR
row,Binder,Kd [nM]
1,B1,230

# Target: T4, FcgRIIa H
# Test: SPR
# Remark: another data set of the same source
row,Binder,Kd [nM]
1,B2,22
2,B3,55
3,B4,26
4,B5,18
5,B6,57
6,B7,35
7,B8,25
8,B9,130
9,B10,77
10,B11,65
11,B12,57

# Target: T3, FcgRIa
# Test: SPR
# Remark: another data set of the same source
row,Binder,Kd [nM]
1,B2,0.066
2,B3,0.14
3,B4,0.38
4,B5,0.19
5,B6,0.25
6,B7,0.39
7,B8,0.16
8,B9,0.31
9,B10,0.18
10,B11,0.23
11,B12,0.12

# Target: T2, FcgRIIa R
# Test: SPR
# Remark: another data set of the same source
row,Binder,Kd [nM]
1,B2,31
2,B3,30
3,B4,19
4,B5,8.6
5,B6,29
6,B7,20
7,B8,19
8,B9,11
9,B10,40
10,B11,26
11,B12,40

# Target: T6, FcgRIIIa F
# Test: SPR
# Remark: another data set of the same source
row,Binder,Kd [nM]
1,B2,4.2
2,B3,0.51
3,B4,1.5
4,B5,3.9
5,B6,2
6,B7,3
7,B8,3.7
8,B9,22
9,B10,3.1
10,B11,1.4
11,B12,1.8
